Results on 4 molecules are retold here after US12679878B2, “CRF2 receptor agonists and their use in therapy” (SANOFI, priority 2020, dated 2026).

The target in this assay is human corticotropin-releasing factor 2α (CRF2 α receptor) (human), Q13324. As to the kind of experiment: cell-based or functional assay.

Starred links: 1 amine or outer side, 2 acyl side, 3 side chain; linkers in the order of their positions; H or OH if unused. Groups on a side chain read outwards from the residue. No end group written: not given here. *: point of attachment. C18 diacid = O=C(O)CCCCCCCCCCCCCCCCC(=O)*; γGlu = O=C(O)[C@H](CCC(=O)[*:2])N[*:1]; Palmitoyl = CCCCCCCCCCCCCCCC(=O)*; AEEA = NCCOCCOCC(=O)O

Chain of human corticotropin-releasing factor 2α (CRF2 α receptor) (human), Q13324 (Q13324 20-411): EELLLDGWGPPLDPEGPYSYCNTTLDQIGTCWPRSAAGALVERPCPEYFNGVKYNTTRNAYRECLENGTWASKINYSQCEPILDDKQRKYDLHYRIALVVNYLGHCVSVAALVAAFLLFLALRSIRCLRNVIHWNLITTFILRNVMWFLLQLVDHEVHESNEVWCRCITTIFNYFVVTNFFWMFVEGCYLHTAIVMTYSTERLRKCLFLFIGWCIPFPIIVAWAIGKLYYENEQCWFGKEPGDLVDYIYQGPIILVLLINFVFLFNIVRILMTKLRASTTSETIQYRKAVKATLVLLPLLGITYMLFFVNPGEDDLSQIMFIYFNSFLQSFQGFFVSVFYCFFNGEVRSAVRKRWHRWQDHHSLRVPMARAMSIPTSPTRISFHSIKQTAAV

B1: SEQ ID NO: 85 (peptide)
peptide: IVLSLDVPIKLK([AEEA-AEEA-γGlu-C18 diacid])QILLKQERQKKQREQAETNKQILAQV-NH2
modifications: N-terminus assumed
SMILES: CC[C@H](C)[C@H](N)C(=O)N[C@H](C(=O)N[C@@H](CC(C)C)C(=O)N[C@@H](CO)C(=O)N[C@@H](CC(C)C)C(=O)N[C@@H](CC(=O)O)C(=O)N[C@H](C(=O)N1CCC[C@H]1C(=O)N[C@H](C(=O)N[C@@H](CCCCN)C(=O)N[C@@H](CC(C)C)C(=O)N[C@@H](CCCCNC(=O)COCCOCCNC(=O)COCCOCCNC(=O)CC[C@H](NC(=O)CCCCCCCCCCCCCCCCC(=O)O)C(=O)O)C(=O)N[C@@H](CCC(N)=O)C(=O)N[C@H](C(=O)N[C@@H](CC(C)C)C(=O)N[C@@H](CC(C)C)C(=O)N[C@@H](CCCCN)C(=O)N[C@@H](CCC(N)=O)C(=O)N[C@@H](CCC(=O)O)C(=O)N[C@@H](CCCNC(=N)N)C(=O)N[C@@H](CCC(N)=O)C(=O)N[C@@H](CCCCN)C(=O)N[C@@H](CCCCN)C(=O)N[C@@H](CCC(N)=O)C(=O)N[C@@H](CCCNC(=N)N)C(=O)N[C@@H](CCC(=O)O)C(=O)N[C@@H](CCC(N)=O)C(=O)N[C@@H](C)C(=O)N[C@@H](CCC(=O)O)C(=O)N[C@H](C(=O)N[C@@H](CC(N)=O)C(=O)N[C@@H](CCCCN)C(=O)N[C@@H](CCC(N)=O)C(=O)N[C@H](C(=O)N[C@@H](CC(C)C)C(=O)N[C@@H](C)C(=O)N[C@@H](CCC(N)=O)C(=O)N[C@H](C(N)=O)C(C)C)[C@@H](C)CC)[C@@H](C)O)[C@@H](C)CC)[C@@H](C)CC)C(C)C)C(C)C
B1 displayed an EC50 [nM], 0% HSA of 0.1 nM and an EC50 [nM], 0.1% HSA of 3.58 nM.

B2: SEQ ID NO: 86 (peptide)
peptide: IVLSLDVPIKLK([AEEA-AEEA-γGlu-C18 diacid])QILLKQERQKKQREQAKTNKQILAQV-NH2
modifications: N-terminus assumed
SMILES: CC[C@H](C)[C@H](N)C(=O)N[C@H](C(=O)N[C@@H](CC(C)C)C(=O)N[C@@H](CO)C(=O)N[C@@H](CC(C)C)C(=O)N[C@@H](CC(=O)O)C(=O)N[C@H](C(=O)N1CCC[C@H]1C(=O)N[C@H](C(=O)N[C@@H](CCCCN)C(=O)N[C@@H](CC(C)C)C(=O)N[C@@H](CCCCNC(=O)COCCOCCNC(=O)COCCOCCNC(=O)CC[C@H](NC(=O)CCCCCCCCCCCCCCCCC(=O)O)C(=O)O)C(=O)N[C@@H](CCC(N)=O)C(=O)N[C@H](C(=O)N[C@@H](CC(C)C)C(=O)N[C@@H](CC(C)C)C(=O)N[C@@H](CCCCN)C(=O)N[C@@H](CCC(N)=O)C(=O)N[C@@H](CCC(=O)O)C(=O)N[C@@H](CCCNC(=N)N)C(=O)N[C@@H](CCC(N)=O)C(=O)N[C@@H](CCCCN)C(=O)N[C@@H](CCCCN)C(=O)N[C@@H](CCC(N)=O)C(=O)N[C@@H](CCCNC(=N)N)C(=O)N[C@@H](CCC(=O)O)C(=O)N[C@@H](CCC(N)=O)C(=O)N[C@@H](C)C(=O)N[C@@H](CCCCN)C(=O)N[C@H](C(=O)N[C@@H](CC(N)=O)C(=O)N[C@@H](CCCCN)C(=O)N[C@@H](CCC(N)=O)C(=O)N[C@H](C(=O)N[C@@H](CC(C)C)C(=O)N[C@@H](C)C(=O)N[C@@H](CCC(N)=O)C(=O)N[C@H](C(N)=O)C(C)C)[C@@H](C)CC)[C@@H](C)O)[C@@H](C)CC)[C@@H](C)CC)C(C)C)C(C)C
B2 displayed an EC50 [nM], 0% HSA of 0.11 nM and an EC50 [nM], 0.1% HSA of 5.7 nM.

B3: SEQ ID NO: 87 (peptide)
peptide: IVLSLDVPIKLK([AEEA-AEEA-γGlu-C18 diacid])QILLKQERQKKQREKAKTNKQILAQV-NH2
modifications: N-terminus assumed
SMILES: CC[C@H](C)[C@H](N)C(=O)N[C@H](C(=O)N[C@@H](CC(C)C)C(=O)N[C@@H](CO)C(=O)N[C@@H](CC(C)C)C(=O)N[C@@H](CC(=O)O)C(=O)N[C@H](C(=O)N1CCC[C@H]1C(=O)N[C@H](C(=O)N[C@@H](CCCCN)C(=O)N[C@@H](CC(C)C)C(=O)N[C@@H](CCCCNC(=O)COCCOCCNC(=O)COCCOCCNC(=O)CC[C@H](NC(=O)CCCCCCCCCCCCCCCCC(=O)O)C(=O)O)C(=O)N[C@@H](CCC(N)=O)C(=O)N[C@H](C(=O)N[C@@H](CC(C)C)C(=O)N[C@@H](CC(C)C)C(=O)N[C@@H](CCCCN)C(=O)N[C@@H](CCC(N)=O)C(=O)N[C@@H](CCC(=O)O)C(=O)N[C@@H](CCCNC(=N)N)C(=O)N[C@@H](CCC(N)=O)C(=O)N[C@@H](CCCCN)C(=O)N[C@@H](CCCCN)C(=O)N[C@@H](CCC(N)=O)C(=O)N[C@@H](CCCNC(=N)N)C(=O)N[C@@H](CCC(=O)O)C(=O)N[C@@H](CCCCN)C(=O)N[C@@H](C)C(=O)N[C@@H](CCCCN)C(=O)N[C@H](C(=O)N[C@@H](CC(N)=O)C(=O)N[C@@H](CCCCN)C(=O)N[C@@H](CCC(N)=O)C(=O)N[C@H](C(=O)N[C@@H](CC(C)C)C(=O)N[C@@H](C)C(=O)N[C@@H](CCC(N)=O)C(=O)N[C@H](C(N)=O)C(C)C)[C@@H](C)CC)[C@@H](C)O)[C@@H](C)CC)[C@@H](C)CC)C(C)C)C(C)C
As for B3, the EC50 [nM], 0% HSA amounted to 0.23 nM and the EC50 [nM], 0.1% HSA is 16.2 nM.

B4: SEQ ID NO: 6 (peptide)
peptide: IVLSLDVPIGLK([γGlu-Palmitoyl])QKLLKQQRQRKERQQAEKNARILARV-NH2
modifications: N-terminus assumed
SMILES: CCCCCCCCCCCCCCCC(=O)N[C@@H](CCC(=O)NCCCC[C@H](NC(=O)[C@H](CC(C)C)NC(=O)CNC(=O)[C@@H](NC(=O)[C@@H]1CCCN1C(=O)[C@@H](NC(=O)[C@H](CC(=O)O)NC(=O)[C@H](CC(C)C)NC(=O)[C@H](CO)NC(=O)[C@H](CC(C)C)NC(=O)[C@@H](NC(=O)[C@@H](N)[C@@H](C)CC)C(C)C)C(C)C)[C@@H](C)CC)C(=O)N[C@@H](CCC(N)=O)C(=O)N[C@@H](CCCCN)C(=O)N[C@@H](CC(C)C)C(=O)N[C@@H](CC(C)C)C(=O)N[C@@H](CCCCN)C(=O)N[C@@H](CCC(N)=O)C(=O)N[C@@H](CCC(N)=O)C(=O)N[C@@H](CCCNC(=N)N)C(=O)N[C@@H](CCC(N)=O)C(=O)N[C@@H](CCCNC(=N)N)C(=O)N[C@@H](CCCCN)C(=O)N[C@@H](CCC(=O)O)C(=O)N[C@@H](CCCNC(=N)N)C(=O)N[C@@H](CCC(N)=O)C(=O)N[C@@H](CCC(N)=O)C(=O)N[C@@H](C)C(=O)N[C@@H](CCC(=O)O)C(=O)N[C@@H](CCCCN)C(=O)N[C@@H](CC(N)=O)C(=O)N[C@@H](C)C(=O)N[C@@H](CCCNC(=N)N)C(=O)N[C@H](C(=O)N[C@@H](CC(C)C)C(=O)N[C@@H](C)C(=O)N[C@@H](CCCNC(=N)N)C(=O)N[C@H](C(N)=O)C(C)C)[C@@H](C)CC)C(=O)O
For the molecule B4, the EC50 [nM], 0% HSA came out at 0.16 nM and the EC50 [nM], 0.1% HSA is 0.18 nM.
